One block for each molecule: values may come before it.
B1: ^15N-Ubc7p (from pET3a-GB1-His6-Thrombin-Ubc7p) (enzyme, Saccharomyces cerevisiae, UniProt Q02159 1-165, looked up)
chain: MSKTAQKRLLKELQQLIKDSPPGIVAGPKSENNIFIWDCLIQGPPDTPYADGVFNAKLEFPKDYPLSPPKLTFTPSILHPNIYPNGEVCISILHSPGDDPNMYELAEERWSPVQSVEKILLSVMSMLSEPNIESGANIDACILWRDNRPEFERQVKLSILKSLGF
modifications: 15N-labelled
B2: Ubc7p:U7BR complex (for NMR titration) (complex, Saccharomyces cerevisiae)
chain 1: MSKTAQKRLLKELQQLIKDSPPGIVAGPKSENNIFIWDCLIQGPPDTPYADGVFNAKLEFPKDYPLSPPKLTFTPSILHPNIYPNGEVCISILHSPGDDPNMYELAEERWSPVQSVEKILLSVMSMLSEPNIESGANIDACILWRDNRPEFERQVKLSILKSLGF
chain 2: LLDKFHVDLNEDMSNLSFKDLDIEERKRLLVWQARKNLETKLQSDKDLQSLLT
modifications: 15N-labelled

Tests used:
[1] = target: GST-Cue1p^151-203 U7BR^m4 (Saccharomyces cerevisiae) (UniProt P38428); assay: pull-down
[2] = target: T1, purified Hrd1p^321-551, containing its RING finger domain (Saccharomyces cerevisiae, UniProt Q08109 321-551); assay: NMR titration
T1 sequence (looked up): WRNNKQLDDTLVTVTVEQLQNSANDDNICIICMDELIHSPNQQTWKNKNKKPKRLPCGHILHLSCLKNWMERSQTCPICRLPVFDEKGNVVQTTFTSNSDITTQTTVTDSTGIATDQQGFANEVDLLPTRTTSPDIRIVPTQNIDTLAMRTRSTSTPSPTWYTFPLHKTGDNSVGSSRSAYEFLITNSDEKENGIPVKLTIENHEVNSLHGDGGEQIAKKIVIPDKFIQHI

^15N-Ubc7p (from …) = target: B1; assay: NMR titration
[3] = target: B2; assay: NMR titration

loss of binding against wild-type [1]: 40%
Molecule: in vitro transcribed and translated ^35S-labeled Ubc7p (from UniProt Q02159 1-165) (enzyme)

Molecule: B1
Kd [2]: 107 µM

Molecule: B2
Kd [2]: 13.4 µM

binding result (^15N-Ubc7p (from …)): binds | binding result [3]: binds
B3: purified Doa10p^1-112 RING fragment (domain or fragment, Saccharomyces cerevisiae, UniProt P40318 1-112, looked up)
chain: MDVDSDVNVSRLRDELHKVANEETDTATFNDDAPSGATCRICRGEATEDNPLFHPCKCRGSIKYMHESCLLEWVASKNIDISKPGADVKCDICHYPIQFKTIYAENMPEKIP

Source: publication PMC4109681 (Molecular cell, 2013)
